Test results reported in PMC6881174.
Where “and” joins values, the source holds several entries; their conditions need not be identical. Identical values can stand only once.

Molecular target: TRIM5α from African green monkey, L81F (African green monkey)
Experiment: cryo-EM structure

Substance: TRIM5α from African green monkey, L81F (natural protein)
- stoichiometry N: 3 and 2
